Values of other authors as cited in PMC6558399.

Biological target: Galectin-1 (Homo sapiens) (UniProt P09382)

For Galectin-1 (from UniProt P09382), the Kd is given as 7 µM.
